From patent publication US20260209325A1 (SCHOLAR ROCK, published 2026)

Columns and labels:
human pro-myostatin [1] = molecular target: T1, human pro-myostatin (human, UniProt O14793 24-375, biotinylated (in the SPR assay)); test: plate binding assay, OD 450 nm, antibody titrated 0.0003 to 100 nM, panel 'Hu-Pro-GDF-8 Plate 1' (method not described in the text)
T1 construct: Disulfide-linked homodimer; also called proGDF8 (human)

[2] = molecular target: T2, recombinant human latent myostatin (human, UniProt O14793 24-375, biotinylated (in the Octet pH assay only)); test: cell-based or functional assay
[3] = molecular target: T2, recombinant human latent myostatin; test: cell-based or functional assay; remark: listed apart in the source
[4] = molecular target: T2, recombinant human latent myostatin; test: BLI Octet Red384, biotin human latent myostatin on streptavidin tips
Experimental: Binding was performed at pH 7.4 and dissociation at pH 5.5 in an Octet Red384@assay. Streptavidin biosensors were baselined in 1x kinetics buffer (KB) (Sartorius) for one minute, then loaded with 100 nM biotinylated human latent myostatin for five minutes, followed by another baseline step of one minute in 1x KB. Binding of test antibodies was performed for five minutes and then dissociation was performed in PBS at either pH 7.4 or pH 5.5 for five minutes. Analysis was performed using a partial fit, in which full dissociation was projected. Kd at pH 5.5 was divided by Kd at pH 7.4 to calculate pH sensitivity.

human pro-myostatin [5] = molecular target: T1, human pro-myostatin; test: SPR Biacore 8K, biotin-antigen captured
murine pro-myostatin [6] = molecular target: T3, murine pro-myostatin (mouse, UniProt O08689 25-376, biotinylated (in the SPR assay)); test: SPR Biacore 8K, biotin-antigen captured
T3 construct: also called proGDF8 (mouse); mouse pro-myostatin

cyno pro-myostatin [7] = molecular target: T4, cyno pro-myostatin (cynomolgus monkey, Biotinylated for capture in the SPR assay (site not stated). The native form is a disulfide-linked homodimer, partly furin-cleaved; one chain is given.); test: SPR Biacore 8K, biotin-antigen captured
T4 construct: also called proGDF8 (cynomolgus); cynomolgus monkey pro-myostatin

[8] = molecular target: T2, recombinant human latent myostatin; test: cell-based or functional assay; remark: listed apart in the source
human pro-myostatin [9] = molecular target: T1, human pro-myostatin; test: Ab KD, summary Table 11; method and antigen not stated there
human pro-myostatin [10] = molecular target: T1, human pro-myostatin; test: cell-based or functional assay
cyno pro-myostatin [11] = molecular target: T4, cyno pro-myostatin; test: plate binding assay, absorbance at 450 nm, antibody titrated 100 to about 0.002 nM, panel 'Cyno Pure Pro-GDF-8' (method not described in the text)
mouse GDF-11 = mouse GDF-11 (mouse, UniProt Q9Z1W4 297-405, limits assumed); test: plate binding assay, OD 450 nm, one antibody concentration that is not given, on Mu-GDF-11 (method not described in the text)
murine pro-myostatin [12] = molecular target: T3, murine pro-myostatin; test: plate binding assay, OD 450 nm, antibody titrated 0.0003 to 100 nM, panel 'Mu-Pro-GDF-8 Plate 3' (method not described in the text)
human GDF-11 = human GDF-11 (human, UniProt O95390 299-407, limits assumed); test: plate binding assay, OD 450 nm, one antibody concentration that is not given, on Hu-GDF-11 (method not described in the text)
murine pro-myostatin [13] = molecular target: T3, murine pro-myostatin; test: plate binding assay, OD 450 nm, antibody titrated 0.0003 to 100 nM, panel 'Mu-Pro-GDF-8 Plate 2' (method not described in the text)
human pro-myostatin [14] = molecular target: T1, human pro-myostatin; test: plate binding assay, OD 450 nm, antibody titrated 0.0003 to 100 nM, panel 'Hu-Pro-GDF-8 Plate 2' (method not described in the text)

Chain of human GDF-11 (O95390 299-407 limits assumed): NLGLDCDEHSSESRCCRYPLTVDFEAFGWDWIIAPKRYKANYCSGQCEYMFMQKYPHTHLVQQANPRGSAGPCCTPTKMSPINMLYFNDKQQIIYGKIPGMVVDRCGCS
Chain of mouse GDF-11 (Q9Z1W4 297-405 limits assumed): as the sequence (O95390 299-407 limits assumed) above

B1: Ab110 (antibody, human IgG4 S228P, kappa, V domains shown)
VH: QVQLVQSGAEVKKPGASVKVSCKVSEYTFTNYDIHWVRQAPGKGLEWMGGISAYHGNAIYAQKFQGRVTMTEDTSTDTAYMELSSLKSEDTAVYYCARDRVRRDYYNFGMDVWGQGTTVTVSS
VL: DIQMTQSPSSVSASVGDRVTITCRASEDITSYLAWYQQKPGKAPKLLIYDVSSLQSGVPSRFSGSGSGTDFTLTISSLQPEDFANYYCLQHNAYPYGFGGGTKVEIKR
- EC50 (read off the curve) (human pro-myostatin [1]): ~0.5 nM

B2: Ab133 (antibody, human IgG4 S228P, kappa, V domains shown)
VH: EVQLVESGGGLVQPGGSLRLSCAASGFTFSSYGMSWVRQAPGKGLELVASFTGSGGAYYPDSVKGRFTISRDNAKNSLYLQMNSLRAEDTAVYYCARDLLIRFLEWSHYYGMDVWGQGTTVTVSS
VL: DIVMTQSPLSLPVTPGEPASISCRSSQSLLHSSGHNFLHWYLQKPGQSPQLLIYEVSNRVSGVPDRFSGSGSGTDFTLKISRVEAEDVGVYYCQQQTQYPGTFGGGTKVEIKR
notes: human IgG4 in the EM experiment; also called Ab133 Human IgG4
- IC50 (nM) Latent + mTLL2 [2]: 0.161 nM
- IC50 of inhibition of myostatin activation by mTLL-2 (functional ELISA, FIG. 1B) [3]: 0.16 nM
- fold difference in off-rate (Kd at pH 5.5 / Kd at pH 7.4) [4]: 17.5 fold
- Kd (human pro-myostatin [5]): 0.041 nM
- koff (human pro-myostatin [5]): 0.000116 s⁻¹
- kon (human pro-myostatin [5]): 2.84e+06 M⁻¹ s⁻¹
- Kd (murine pro-myostatin [6]): 0.054 nM
- koff (murine pro-myostatin [6]): 0.000162 s⁻¹
- kon (murine pro-myostatin [6]): 3.01e+06 M⁻¹ s⁻¹
- Kd (cyno pro-myostatin [7]): 0.0383 nM
- koff (cyno pro-myostatin [7]): 0.000109 s⁻¹
- kon (cyno pro-myostatin [7]): 2.86e+06 M⁻¹ s⁻¹
- mTLL2 IC50 [8]: 0.161 nM
- Kd (human pro-myostatin [9]): 0.041 nM

B3: Ab105 (antibody, human IgG4 S228P, kappa, V domains shown)
VH: EVQLVESGGGLVQPGGSLRLSCAASGSAFSSYGMSWVRQAPGKGLELVASIGGTGATYYPDSVKGRFTISRDNAKNSLYLQMNSLRAEDTAVYYCARDLLVRFLEWGHYYGMDVWGQGTTVTVSS
VL: DIVMTQSPLSLPVTPGEPASISCRSSQSLLHSSGYNFLHWYLQKPGQSPQLLIYAASSRAPGIPDRFSGSGSGTDFTLKISRVEAEDVGVYYCMHGGQGPTFGGGTKVEIKR
- IC50 (nM) Pro + Furin (human pro-myostatin [10]): 0.356 nM
- IC50 (nM) Latent + mTLL2 [2]: 0.25 nM
- fold difference in off-rate (Kd at pH 5.5 / Kd at pH 7.4) [4]: 0.8 fold
- Kd (human pro-myostatin [5]): 0.051 nM
- koff (human pro-myostatin [5]): 0.000247 s⁻¹
- kon (human pro-myostatin [5]): 4.89e+06 M⁻¹ s⁻¹
- Kd (murine pro-myostatin [6]): 0.046 nM
- koff (murine pro-myostatin [6]): 0.000276 s⁻¹
- kon (murine pro-myostatin [6]): 5.99e+06 M⁻¹ s⁻¹
- Kd (cyno pro-myostatin [7]): 0.044 nM
- koff (cyno pro-myostatin [7]): 0.000233 s⁻¹
- kon (cyno pro-myostatin [7]): 5.26e+06 M⁻¹ s⁻¹
- mTLL2 IC50 [8]: 0.25 nM
- Kd (human pro-myostatin [9]): 0.229 nM

B4: Ab130 (antibody, human IgG4 S228P, kappa, V domains shown)
VH: EVQLVESGGGLVQPGGSLRLSCAASGFTFTSYGMSWVRQAPGKGLELVASITGSGGETYYPDSVKGRFTISRDNAKNSLYLQMNSLRAEDTAVYYCARDLLVRFLEWSHYYGMDVWGQGTTVTVSS
VL: DIVMTQSPLSLPVTPGEPASISCRSSQSLLHSSGHNFLHWYLQKPGQSPQLLIYETSNRAPGIPDRFSGSGSGTDFTLKISRVEAEDVGVYYCQQATQFPRPFGGGTKVEIKR
- IC50 of inhibition of myostatin activation by mTLL-2 (functional ELISA, FIG. 1A) [3]: 0.31 nM
- IC50 of inhibition of myostatin activation by mTLL-2 (functional ELISA, FIG. 1B) [3]: 0.3 nM
- fold difference in off-rate (Kd at pH 5.5 / Kd at pH 7.4) [4]: 10.6 fold
- mTLL2 IC50 [8]: 0.33 nM
- Kd (human pro-myostatin [9]): 0.35 nM

B5: Ab102 (antibody, human IgG4 S228P, kappa, V domains shown)
VH: EVQLVESGGGLVQPGGSLRLSCAASGFTFTSYGMSWVRQAPGKGLELVASITGSGGETYYPDSVKGRFTISRDNAKNSLYLQMNSLRAEDTAVYYCARDLLVRFLEWSHYYGMDVWGQGTTVTVSS
VL: DIVMTQSPLSLPVTPGEPASISCRSSQSLLHSSGHNFLHWYLQKPGQSPQLLIYETSNRAPGIPDRFSGSGSGTDFTLKISRVEAEDVGVYYCMQATQFPRPFGGGTKVEIKR
- IC50 (nM) Pro + Furin (human pro-myostatin [10]): 0.211 nM
- IC50 (nM) Latent + mTLL2 [2]: 0.162 nM
- fold difference in off-rate (Kd at pH 5.5 / Kd at pH 7.4) [4]: 9.3 fold
- Kd (human pro-myostatin [5]): 0.058 nM
- koff (human pro-myostatin [5]): 0.000376 s⁻¹
- kon (human pro-myostatin [5]): 6.49e+06 M⁻¹ s⁻¹
- Kd (murine pro-myostatin [6]): 0.082 nM
- koff (murine pro-myostatin [6]): 0.0005 s⁻¹
- kon (murine pro-myostatin [6]): 6.11e+06 M⁻¹ s⁻¹
- Kd (cyno pro-myostatin [7]): 0.049 nM
- koff (cyno pro-myostatin [7]): 0.000335 s⁻¹
- kon (cyno pro-myostatin [7]): 6.8e+06 M⁻¹ s⁻¹
- mTLL2 IC50 [8]: 0.346 nM
- Kd (human pro-myostatin [9]): 0.329 nM

B6: Ab135 (antibody, human IgG4 S228P, kappa, V domains shown)
VH: EVQLVESGGGLVQPGGSLRLSCAASGSAFSSYGMSWVRQAPGKGLELVASINSNGGSTYYPDSVKGRFTISRDNAKNSLYLQMNSLRAEDTAVYYCARDLLVTFLRWSHYYGMDVWGQGTTVTVSS
VL: DIVMTQSPLSLPVTPGEPASISCRSSQSLLHSSGHNFLHWYLQKPGQSPQLLIYEVSNRVSGVPDRFSGSGSGTDFTLKISRVEAEDVGVYYCMQQTQYPPTFGGGTKVEIKR
- IC50 (nM) Latent + mTLL2 [2]: 0.154 nM
- EC50 (read off the curve) (cyno pro-myostatin [11]): ~0.3 nM

B7: Ab125 (antibody, human IgG4 S228P, kappa, V domains shown)
VH: EVQLVQSGAEVKKPGESLKISCKGSGNRISDYWMNWVRQVPGKGLEWMGNIYPGYSDATYNRKFKGQVTISADKSISTAYLQWSSLKASDTAIYYCARGRDGYNYFAAFDIWGQGTMVTVSS
VL: EIVLTQSPATLSLSPGERATLSCRASQSVASSYLAWYQQKPGQAPRLLIYDTSSRAAGIPARFSGSGSGTDFTLTISSLEPEDFAVYYCHQYGSSLTTFGGGTKVEIKR
- IC50 (nM) Latent + mTLL2 [2]: 0.202 nM
- Kd (murine pro-myostatin [6]): 0.125 nM
- koff (murine pro-myostatin [6]): 0.000411 s⁻¹
- kon (murine pro-myostatin [6]): 3.29e+06 M⁻¹ s⁻¹
- binding result (mouse GDF-11): no binding
- EC50 (read off the curve) (murine pro-myostatin [12]): ~0.2 nM
- binding result (human GDF-11): no binding

B8: Ab117 (antibody, human IgG4 S228P, kappa, V domains shown)
VH: QVQLVQSGAEVKKPGASVKVSCKVSGGTFSSHDIHWVRQAPGKGLEWMGGINPSDASTIYAQKFQGRVTMTEDTSTDTAYMELSSLKSEDTAVYYCARDLRGYSYGAETWHFQHWGQGTLVTVSS
VL: DIQMTQSPSSVSASVGDRVTITCRASQYISNYLAWYQQKPGKAPKLLIYETSRLESGVPSRFSGSGSGTDFTLTISSLQPEDFANYYCQQTSSTPLTFGGGTKVEIKR
- binding result (murine pro-myostatin [13]): binds
- binding result (human pro-myostatin [14]): binds
- binding result (mouse GDF-11): no binding
- binding result (human GDF-11): no binding

B9: Ab116 (antibody, human IgG4 S228P, kappa, V domains shown)
VH: QVQLVQSGAEVKKPGASVKVSCKVSGFTFSRPAIHWVRQAPGKGLEWMGGINPNAATTIYAQKFQGRVTMTEDTSTDTAYMELSSLKSEDTAVYYCARGRLLREWELRPYDTWGQGTLVTVSS
VL: DIQMTQSPSSVSASVGDRVTITCRASQSIGKSLAWYQQKPGKAPKLLIYSASNLRSGVPSRFSGSGSGTDFTLTISSLQPEDFANYYCQQYRDVPPITFGGGTKVEIKR
- EC50 (read off the curve) (murine pro-myostatin [13]): ~1 nM
- EC50 (read off the curve) (human pro-myostatin [14]): ~1 nM
- binding result (mouse GDF-11): no binding
- binding result (human GDF-11): no binding

B10: Ab119 (antibody, human IgG4 S228P, kappa, V domains shown)
VH: QVQLVQSGAEVKKPGASVKVSCKVSGYTFTKDHIHWVRQAPGKGLEWMGGITPSSGDTIYAQKFQGRVTMTEDTSTDTAYMELSSLKSEDTAVYYCARDHMVRGLPNYYYGMDLWGQGTTVTVSS
VL: DIQMTQSPSSVSASVGDRVTITCRASRDIANYLAWYQQKPGKAPKLLIYAASILQNGVPSRFSGSGSGTDFTLTISSLQPEDFANYYCQQAYTTPPTFGGGTKVEIKR
- binding result (murine pro-myostatin [13]): binds
- binding result (human pro-myostatin [14]): binds
- binding result (mouse GDF-11): no binding
- binding result (human GDF-11): no binding
